Data from PMC5701133.

Biological target: JMJD6 full-length;BRD4 ET domain (human?;human, UniProt Q6NYC1;O60885 1-403;601-683, |)
Assay: thermal shift (DSF); with BRD4 ET; Tm […] C (+[…] C vs JMJD6/ssRNA); DSF: PBS pH 7.4, 1 uM JMJD6, 1 uM oligonucleotide, ET 1-100 uM, SYPRO Orange, 25-95 C at 1 C/min

AUACGAUGCUUUACGGUGCUAUUUUGU (ssRNA) [ssRNA 27-nt]: binds.
